Measured values published in the DeepSol protein solubility set.

assay: soluble on expression in E. coli; label from the status in PepcDB or PDB records

Q: For “MSPIDEFTYIKQNKIVYDSNSLIQLYFPIMGSDAMALYDYFVHFFDDGIRRHKFSEVLNHLQYGMPRFQDALVMLTALDLLTVYQATGTYLVKLNQAMSNELFLSNPIYRRLLEKRIGEVAVAELDMKIPKNARDISKKFTDVFSDLGQPKQEVNRSKNVFDLESFKRLMMRDGLRFNNEKDDVLGIYSVSELYHLNWYDTYQLAKQTAINGMIAPQRMKVQQNEGQHIKDNQSFTNNEKVILRESKNDSALVFLEKIKRSRKAVTTSGEKTLLEDLAKMNFLDEVINVMVLYTLNKTKSANLNKAYIMKVANDFAFQNVMTAEDAVLKIRDFSDQKVRTKTETKKKQSNVPEWSNPDYKDEVSPEKEIELEQFKTDALKRLERLGKDGES”, which “soluble on expression in E. coli” value is on record?
A: not soluble

Q: For “MGQVLPLVTRQGDRIAIVSGLRTPFARQATAFHGIPAVDLGKMVVGELLARSEIPAEVIEQLVFGQVVQMPEAPNIAREIVLGTGMNVHTDAYSVSRACATSFQAVANVAESLMAGTIRAGIAGGADSSSVLPIGVSKKLARVLVDVNKARTMSQRLKLFSRLRLRDLMPVPPAVAEYSTGLRMGDTAEQMAKTYGITREQQDALAHRSHQRAAQAWSDGKLKEEVMTAFIPPYKQPLVEDNNIRGNSSLADYAKLRPAFDRKHGTVTAANSTPLTDGAAAVILMTESRAKELGLVPLGYLRSYAFTAIDVWQDMLLGPAWSTPLALERAGLTMSDLTLIDMHEAFAAQTLANIQLLGSERFAREALGRAHATGEVDDSKFNVLGGSIAYGHPFAATGARMITQTLHELRRRGGGFGLVTACAAGGLGAAMVLEAE”, which “soluble on expression in E. coli” value is on record?
A: soluble

Q: With “MDFLEKVLDNQVTESKELVRLYDYDLYTLGEVADRMRQNMHQKIVYFNVNRHLNPSNICADACKFCAFSAHRKNPNPYEMSLEEILEKVKNSYNKGIKEVHIVSAHNPNYSYEWYLKVFETIKQEMPNLHLKAMTAAEVHFLSVKFNKPFELVLEDMLKAGVDSMPGGGAEIFDEEIRRKICNGKVGSSRWLEIHAYWHKLGKMSNATMLFGHIENKIHRIDHMLRIKKIQSPKNQVENKEGGFNAFIPLLYQKENNYLNVEKSPSAIEILKTIAISRILLNNIPHIKAYWATLGLNLALVAQEFGANDLDGTIEIESIQSAAGAKSRHGLEKEDLIFKIKDAGFVAVERDSLYNFIQKF” as the sequence, how does the “soluble on expression in E. coli” value read?
A: not soluble

Q: Which “soluble on expression in E. coli” value does the source give for “MKLYYSPGACSLSPHIALREAGLNFELVQVDLASKKTASGQDYLEVNPAGYVPCLQLDDGRTLTEGPAIVQYVADQVPGKQLAPANGSFERYHLQQWLNFISSELHKSFSPLFNPASSDEWKNAVRQSLNTRLGQVARQLEHAPYLLGDQLSVADIYLFVVLGWSAYVNIDLSPWPSLQAFQGRVGGREAVQSALRAEGLIKE” here?
A: soluble

Q: Which “soluble on expression in E. coli” value does the source give for “MGSDKIHHHHHHMVAIKNFSIKIKDKEPVFTLGEKLTQEQLDFFETHGYIHFKNFLNPETVPAVIKALEDVQEQWIAENREKVNGVPIKYGVDLDGKKIVQRFAFASLFSNVLHELLKDPRLKALYPLLQAKDERIGEFEKDGLVVNHYINSDASSFTKMGWHTDCLRDVFYGKKIMPMLNVGIHLDNYDPKNGGLRIIPGTHKQDLLNLLFRKKYYVSHKPDPDEIGFNITAGDLTVHDGRSWHRVERSPITGEASRRRVMYIPFIGGEYQPKDENSSTQLYQRLSKFVR” here?
A: not soluble

Q: Which “soluble on expression in E. coli” value does the source give for “MSAEAVAAAPIAEEATPVVYYSIESNDRVVLKISEQAIKQSATLSNSITNLGYSAENAESMVPIPIEKVNGKTLKLVVEWCEHHKADPVPEAYPSGNTVLPVWDRKFVDIEHDALTDLVNASNFLEVMTLLTYCCKFIAGLAKGMSPEEMRVFFCIPTDEEDEKAERFGKEKTEASATSADTTA” here?
A: not soluble

Q: Which “soluble on expression in E. coli” value does the source give for “MGHHHHHHSHVRSPQNQYPAELMRRFELYFQGPSSNKPRVIREVRADSVGKLVTVRGIVTRVSEVKPKMVVATYTCDQCGAETYQPIQSPTFMPLIMCPSQECQTNRSGGRLYLQTRGSRFIKFQEMKMQEHSDQVPVGNIPRSITVLVEGENTRIAQPGDHVSVTGIFLPILRTGFRQVVQGLLSETYLEAHRIVKMNKSEDDESGAGELTREELRQIAEEDFYEKLAASIAPEIYG” here?
A: soluble

Q: For “MARFSSVLIYDGECPYCSVAAKALEQVDDIGAISWYDESAQSFLTAQFDEPPFAMVLVDRPAQQVYAGRAAAEELAGRAGLPDLVGSLVRDNYEKIAHVVGLASGRGREPDDVHERYVLADDAQDRFDTLAKDAVDRDIRADALEHHHHHH”, which “soluble on expression in E. coli” value is on record?
A: soluble

Q: For “MYIPKYFKVTNAEEIWNFVQENSFGTVVTTEQGKPIATHLPLGFNKKDDHYYITGHFAYGNPQWRTFEACEDVLVMFQGPHAYISSSWYSRENVPTWNYQAVHMYGKASMLEKDELAEELTIMLEQKTPTQAFSVLWDKLSPKLLESELKGIVGFKIKVEDIQAAYKLSQNRNETDYMNVIEQLQNEENPNAKQMAELMEDKLKKQI”, which “soluble on expression in E. coli” value is on record?
A: not soluble

Q: For “ALRGTVTDFSGFDGEADAEVLEKAMEGLGTDEDSILNLLTARSNAQRQQIAEEFETLFGRDLVNDMKSELTGKFEKLIVALMKPSRLYDAYELKHALKGAGTDEKVLTEIIASRTPEELRAIKQAYEEEYGSNLEDDVVGDTSGYYQRMLVVLLQANRDPDTAIDDAQVELDAQALFQAGELKWGTDEEEFITILGTRSVSHLRRVFDKYMTISGFQIEETIDRETSGNLENLLLAVVKSIRSIPAYLAETLYYAMKGAGTDDHTLIRVIVSRSEIDLFNIRKEFRKNFATSLYSMIKGDTSGDYKKALLLLSGGEDD”, which “soluble on expression in E. coli” value is on record?
A: soluble

Q: For “MGLFDFFKKKSSSEKTPIEDGDKTVVKSEDTDDSAPGWEAIDAEFDRLYPDQPNPLHYGTIVKYMFGGPDPLDGISVYDAGDFWHFVSYGLSELYTKESTDSEYSGYGIELTFKLKKSTNDEEEIKNGCGLLQYVARYIFKTGKVVLPEEYIYMKQTVGIDIQQKSKLTGFLTVSDNLAKPLDTPHGKVEFVTLIGATDAELRSVYESETSKLEVRKLLQELGNQITDYNRQSLVLEHHHHHH”, which “soluble on expression in E. coli” value is on record?
A: not soluble

Q: For “MLFDSLPRPSERIAPGVAHLPGWLGVDKQAELVREIREIARTYADTPMAMLRPTLKSGGQMSVYQLHLGRYWHYPSYRYIDKIAGTTVPPVPDSLAALAPEALRAAAEVAEELAPWVETFVPEMVLVNYYPPGSRMGMHVDEFEESRAPVISVSIGDEALFRMGHTESRTQPWDDVTLCSGDLVVFGGPKRFAYHGVVRVNDATLPDGCGLEQGRINITIRQVSAAPNVQGR”, which “soluble on expression in E. coli” value is on record?
A: not soluble

Q: With “MSKEPGEDVDLFDMEQFQSSFKRILQRALKNVTVSFRVYEKDSVWIRVAWGTQYSQPNQYKPTFVVYYPQTPYAFISSCHLKNTVPLLHQALKVASKHHQIVHLDLRSRHLDSLKAIVFREYNQTCENYSSTTSLQEASLSMCLDSKITHENTEEKVRVHRVTQETFGTYPQPQLEFAQYKLETKFKSNIGGGLLADRKEPFRCLVKFSSPHLLEALKSLAPAGIADAPLSPLLTCIPSKKMNYFKIRDK” as the sequence, how does the “soluble on expression in E. coli” value read?
A: not soluble

Q: For “SLTMNPLLTAEWGNVSEEKVEVVVDAGLGKALLVPASVESLSMQFNGVEVASLEEFDYSPTKSNARIVIGIDPNELVRALERYFESNQHGELSVEAKLGLFGLLHSTLTFSREFQQDILGQMDFKAESKPIFGGLLYTPSVEGTKVVWLGAENGVWNLKTYATLKNPNSFPIPVSNLEFEVSVNGIKVGVGNISQGVTIPAGGVATVPIDTEIYSEYLPTVLVAHIKNGEESSVEVNFYITVSSGGKSARINLTSERIVIQTDIMASINDALSGVSPRE”, which “soluble on expression in E. coli” value is on record?
A: soluble

Q: With “MSLGEKGQAEIIKSLTEQLDQVQSLDDDRIIRRYMEMINATLRTNYYQLDEHKQNKPWLSLKMKPSEIPEIPAPVPAFEIFVYAPDIEGVHLRGGKVARGGLRWSDRQEDFRTEILGLVKAQQVKNTVIVPVGAKGGFVCKKQYLYTTRDEIFAEGQRCYKRFIRALLDVTDNIIEGQVVPPKNVVRHDEDDPYLVVAADKGTATFSDLANSVSAEYQFWLGDAFASGGSNGYDHKAMGITAKGGWESVKRHFREMGIDCQTTDFTAIGIGDMAGDVFGNGMLLSKHIRLLAAFNHIHIFIDPTPDSASSWEERNRLFNLPRSSWEDYNPKLISKGGGVFSRKAKAITLTPEMQKMLNTKKTTLAPNELIKMILKMEVDLLWNGGIGTYVKSSIETHTDVGDRANDGLRVDGREVNAKIIGEGGNLGMTQRGRIEFALKGGRVNTDFVDNVGGVDCSDNEVNIKIFLNGLVANGDLTLKQRNQILESMKDEVGSIVIEDAYGQSESISVTEAQGEGHHHHHH” as the sequence, how does the “soluble on expression in E. coli” value read?
A: not soluble

Q: Which “soluble on expression in E. coli” value does the source give for “KAAPEDVRMIMIDPKMLELSIYEGIPHLLAPVVTDMKLAANALNWCVNEMEKRYRLMSFMGVRNLAGFNQKIAEAAARGEKIGNPFSLTPDDPEPLEKLPFIVVVVDEFADLMMTAGKKIEELIARLAQKARAAGIHLILATQRPSVDVITGLIKANIPTRIAFQVSSKIDSRTILDQMGAENLLGQGDMLFLLPGTAYPQRVHGAFASDEEVHRVVEYLKQFGEPDYVDDILSGGGSEELPGIGRSGDDETDPMYDEAVSVVLKTRKASISGVQRALRIGYNRAARLIDQMEAEGIVSAPEHNGNRTILVPLDNA” here?
A: not soluble

Q: Which “soluble on expression in E. coli” value does the source give for “MRGSHHHHHHTDPNSPLDEENLTQENQDRGTHVDLGLASANVDFAFSLYKQLVLKAPDKNVIFSPLSISTALAFLSLGAHNTTLTEILKGLKFNLTETSEAEIHQSFQHLLRTLNQSSDELQLSMGNAMFVKEQLSLLDRFTEDAKRLYGSEAFATDFQDSAAAKKLINDYVKNGTRGKITDLIKDLDSQTMMVLVNYIFFKAKWEMPFDPQDTHQSRFYLSKKKWVMVPMMSLHHLTIPYFRDEELSCTVVELKYTGNASALFILPDQDKMEEVEAMLLPETLKRWRDSLEFREIGELYLPKFSISRDYNLNDILLQLGIEEAFTSKADLSGITGARNLAVSQVVHKAVLDVFEEGTEASGTTAVKITLLSALVETRTITRFNRPFLMIIVPTDTQNIFFMSKVTNPKQA” here?
A: soluble

Q: For “MSLRIGVIGLGRIGTIHAENLKMIDDAILYAISDVREDRLREMKEKLGVEKAYKDPHELIEDPNVDAVLVCSSTNTHSELVIACAKAKKHVFCEKPLSLNLADVDRMIEETKKADVILFTGFNRRFDRNFKKLKEAVENGTIGKPHVLRITSRDPAPPPLDYIRVSGGIFLDMTIHDFDMARYIMGEEVEEVFADGSVLVDEEIGKAGDVDTAVVVLRFKSGALGVIDNSRRAVYGYDQRIEVFGSKGRIFADNVRETTVVLTDEQGDRGSRYLYFFLERYRDSYLEELKTFIKNVKSGEPPAVSGEDGKMALLLGYAAKKSLEEKRSVKLEEVIGEGHHHHHH”, which “soluble on expression in E. coli” value is on record?
A: soluble

Q: For “MGSDKIHHHHHHMDLRQIKTFVVVAEELHFGRAAARLQIAQPAVTAQIQALERQLGVPLLIRSTRRVQLTEAGMIFNSRCIDILRDIDRTCLATQAVAGKDLHQITIGTIYPATFGVLPNFVSRINQRFPEARIHIHNGNTVGIVREIERGNINLGFIRPVENIGSLRWQSIHREKYLLAIARENPLSSKSTVTPDDLRKQKIIAFSRAYNSQTDDNFPEEFKKYDLNQQVVYSCNDTQAMLAMITAGIGVGFVPEWVKSIPGQNFELREVEGLERHIGLGLAWSVDDPTVNRDSIIELCRTLIGSEVDWPR”, which “soluble on expression in E. coli” value is on record?
A: not soluble

Q: With “MSLSETASAENLLGAYLKDRRTRLDAAAFGLSGSRRRTPGLRREEVAQRANISPTWYTWLEQGRGGAPSADVLDRIARALMLTDVEREHLFLIGLGRPPEVRYQASDGVSPRLQRVLDALAFSPALVRTATWDVVAWNRAATAVLTDYGAIPPGQRNILRFIFCDPRVRAAQYDWDSVARFVVAAFRADAARAGAVSHVADFVDELCRTSPEFAALWRDNDVRHHGDGTKRLRHPVHGTMSFEYSSFNVEGRSDLSMIVYNPATPEDADRIRTLLAERADEGHHHHHH” as the sequence, how does the “soluble on expression in E. coli” value read?
A: soluble
